{"source": "patent US11795488B2", "about": "“Methods for enzymatic peptide ligation” (NANYANG TECHNOLOGICAL UNIVERSITY, priority 2016, dated 2023)", "molecules": {"B1": {"name": "Cys247Ala: OaAEP1 Cys247Ala (Quicklase), Asx-specific peptide ligase having the amino acid sequence of SEQ ID NO:1 (protein, listed as Ovaloparmena affinis)", "chain": "MVRYLAGAVLLLVVLSVAAAVSGARDGDYLHLPSEVSRFFRPQETNDDHGEDSVGTRWAVLIAGSKGYANYRHQAGVCHAYQILKRGGLKDENIVVFMYDDIAYNESNPRPGVIINSPHGSDVYAGVPKDYTGEEVNAKNFLAAILGNKSAITGGSGKVVDSGPNDHIFIYYTDHGAAGVIGMPSKPYLYADELNDALKKKHASGTYKSLVFYLEACESGSMFEGILPEDLNIYALTSTNTTESSWAYYCPAQENPPPPEYNVCLGDLFSVAWLEDSDVQNSWYETLNQQYHHVDKRISHASHATQYGNLKLGEEGLFVYMGSNPANDNYTSLDGNALTPSSIVVNQRDADLLHLWEKFRKAPEGSARKEEAQTQIFKAMSHRVHIDSSIKLIGKLLFGIEKCTEILNAVRPAGQPLVDDWACLRSLVGTFETHCGSLSEYGMRHTRTIANICNAGISEEQMAEAASQACASIP"}}, "key": {"[1]": {"system": "peptide substrate \"GLPVSTKPVATRNGL\" (SEQ ID NO: 18)", "assay": "Peptide cyclization assay, kinetic analysis (HPLC/MS)", "format": "biochemical", "procedure": "(§1) Native and modified amino acids were purchased from Sigma-Aldrich (USA). All peptides used in this manuscript were synthesized in-house using the solid-phase method and HPLC purified. Cyclization assays were performed in 50-μl reaction mixtures containing 20 mM phosphate buffer, ligases (5 to 700 nM) and peptide substrates (10 to 300 μM). Each reaction was performed in triplicate at 37° C. and quenched by adding 5 μl of 1 M HCl solution. The peptides were separated by using a reversed-phase C18 analytical column (150×2.1 mm, Vydac) with a linear gradient from 10% to 50% acetonitrile over 15 min on a Nexera UHPLC system (Shimadzu). For kinetic analysis, the concentrations of WT OaAEP1, mutant OaAEP1, and butelase 1 were fixed at 700 nM, 50 nM, and 20 nM, respectively. The cyclization velocities were calculated by converting the HPLC-peak areas of remained linear precursors or the cyclized products into concentrations. The identity of each HPLC peak was analyzed by MALDI-TOF MS (ABI 4800 MALDI TOF/TOF). The velocities were input into GraphPad Prism (GraphPad Software, San Diego) to obtain the Michaelis-Menten curve and the kinetic parameters (kcat and Km). Comparison for the cyclization efficiency of various OaAEP1 mutants were performed in a volume of 20 μl of the reaction mixture and analyzed by MALDI-TOF MS after 10 mins or 1 hour ligation reaction.\nThe peptide cyclization activity of mature OaAEP1 was then analyzed using MS and the peptide substrate “[…]” (SEQ ID NO: 18) (FIG. 5A). The turn-over rate (kcat) for OaAEP1 is 0.052 s^−1, a value in good agreement with the previous report (Harris, K. S., et al., Nat Commun, 2015. 6: p. 10199). Likewise, the cyclization activity of butelase 1 extracted from plant was measured using the 15 residues peptide “[…]” (SEQ ID NO: 19) (FIG. 5A) leading to a kcat about 90 times faster than OaAEP1 b."}, "[2]": {"system": "ubiquitin with C-terminal Asn-Gly-Leu and peptide having N-terminal residues GlyLeu", "assay": "Ligation of ubiquitin with a peptide", "format": "biochemical", "procedure": "(§2) (a) Fluorescence detection using 02 benzylcytosine-Alexa647 of the SNAP protein and SDS PAGE analysis with Comassie blue staining detection of the protein substrate and ligated products. The reaction is schematically depicted as inset. Cys247Ala ligates well folded protein well. […] (b) As little as 30 nM Cys247Ala catalyze ligation of 100 μM Ubiquitin and 500 μM biotin labelled peptide efficiently in 30 min, at room temperature, in pH 7.4 PBS buffer.\n(§3) The ability of Cys247Ala to ligate ubiquitin with a peptide was first tested. The three residues“Asn-Gly-Leu” were added to the C-terminus of ubiquitin to make it recognizable by Cys247Ala. Another peptide having N-terminal residues GlyLeu was used as the add-on component. At a protein: peptide molar ratio of 1:5, Cys247Ala catalyzed the ligation of more than 90% ubiquitin with the peptide within 10 min (FIG. 6). An amount of 30 nM of Cys247Ala was enough for the reaction compared to 10-30 μM of sortase A typically required to perform productive ligations. […] Ubiquitin having the same “Asn-Gly-Leu” modification at its C-terminal end and a N-terminal modified SNAP (NEB) tag protein were used as substrates. […] Protein ligation can be performed within minutes at neutral pH and at room temperature."}, "[3]": {"system": "ubiquitin and SNAP tag protein", "assay": "Ligation of two well-folded proteins", "format": "biochemical", "procedure": "as §2, §3"}, "peptide substrate": {"system": "peptide substrate", "assay": "Comparison of cyclization efficiency of gate-keeper Cys247 mutants (MALDI-TOF MS)", "format": "biochemical", "procedure": "as §1\nThe pre-ligation conformation of OaAEP1 captured in the present structure was then analyzed to identify several key features that could differentiate an AEP protease from an AEP-like ligase. […] In contrast to AEP proteases, the surface of OaAEP1 facing the catalytic Cys217 appears to be more widely open. Three cysteine residues (Cys247, Cys250, Cys264) are aligned along a shallow cleft at the surface of the enzyme (FIGS. 3C and 3E). Unlike the surface of AEP proteases that contains several bulges, both butelase 1 (using a homology model based on OaAEP1b) and OaAEP1 have residues with smaller side-chains along this patch. A disulfide bond is formed between Cys250 and Cys264, which are conserved in AEP-like ligases butelase 1 and OaAEP1b. This covalent bond is likely to stabilize the local structure and provide an adequate surface allowing the approach of an N-terminal amine incoming group. Conversely, the corresponding surface patch of AEP proteases (PDB: 4AWA) is lined with residues having bulky side-chains like Tyr (FIG. 3E) blocking this channel. It was therefore hypothesized that residue Cys247 which is located at the extremity of the substrate channel is likely to function as a final nucleophile filter (or “gate-keeper”), allowing attack from the N-terminal amine to complete the ligation reaction. […]"}, "HEK293T": {"system": "HEK293T", "assay": "Cell surface labeling with fluorescently tagged SNAP protein", "format": "cell-based, human", "conditions": "10 μM SNAP-NGL, 0.1 μM Quicklase, 30 minutes˜1 hour", "procedure": "(§4) (b) Fluorecently tagged SNAP (New England Biolabs) protein was conjugated to the intrinsic cellular surface proteins of two different cell lines, RAW cell ([…]) and HEK293T (human epithelial cell line). 10 μM modified SNAP protein (with additional C-terminal NGL residues, lane 1 sample) with or without (lane 2 and lane 5 samples) coincubation of 0.1 μM Quicklase were added to cell culture, pre-washed with PBS buffer. After 30 minutes˜1 hour incubation, cells were rinsed with additional PBS buffer (lane 3 and lane 6 were first wash samples), two times. The remaining cell was harvested and lysed with SDS loading buffer (lane 4 and 7 samples). All samples were examined using SDS-PAGE, and only the covalently fluorescently tagged SNAP protein carried the signal on the gel, which were shown as dark bands in (b). […] (c) Surface modified RAW cells were examined using a fluorescent microscope, bright spots on the cellular surface indicated successful surface labelling of intrinsic cellular membrane.\n(§5) 0.1 to 1 μM of OaAEP1 Cys247Ala was added to cellular culture in standard cell culture conditions. 1-20 μM labeling protein tags were added to the reaction afterwards, and incubated for 30-45 mins at 37° C. and standard culturing condition, before both excess enzymes and labelling tags were washed away. […]"}, "RAW cell": {"system": "RAW cell", "assay": "Cell surface labeling with fluorescently tagged SNAP protein", "format": "cell-based, human", "conditions": "10 μM SNAP-NGL, 0.1 μM Quicklase, 30 minutes˜1 hour", "procedure": "as §4, §5"}}, "data": [{"molecule": "B1", "values": [{"measurement": "kcat relative to WT OaAEP1b", "setting": "[1]", "value": "approximately 160 times"}, {"measurement": "peptide ligase catalytic activity relative to wild type OaAEP1", "setting": "[1]", "value": "~160", "unit": "times"}, {"measurement": "enzyme concentration that catalyzes ligation efficiently", "setting": "[2]; 100 μM Ubiquitin, 500 μM biotin labelled peptide, 30 min, room temperature, pH 7.4 PBS", "value": 30, "unit": "nM"}, {"measurement": "ubiquitin ligated with the peptide", "setting": "[2]; protein: peptide molar ratio 1:5, within 10 min", "value": "more than 90%"}, {"measurement": "amount of enzyme enough for the reaction", "setting": "[2]; ubiquitin-peptide ligation", "value": 30, "unit": "nM"}, {"measurement": "protein ligation activity (control ligation experiments)", "setting": "[3]", "value": "protein ligation activity could only be observed in the presence of the Cys247Ala protein"}, {"measurement": "individual substrate proteins ligated into a single polypeptide product", "setting": "[3]; 5 μM SNAP tag protein, 8 μM ubiquitin, 100 nM enzyme", "value": "more than 60%"}, {"measurement": "ligation of SNAP tag protein with Ubiquitin", "setting": "[3]; 5 μM SNAP tag, 100 nM Cys247Ala, 4000 nM wild type OaAEP1b", "value": "efficiently ligated"}, {"measurement": "alternative reaction when N-terminal amine is not available", "setting": "peptide substrate; N-terminal amine group acetylated", "value": "side chain ligation is more preferred"}, {"measurement": "ligase activity compared to WT OaAEP1", "setting": "peptide substrate; gate-keeper position 247 mutants", "value": "significantly improved enzymatic properties"}, {"measurement": "conjugation of SNAP protein to intrinsic cellular surface proteins", "setting": "HEK293T", "value": "significant amount of intrinsic proteins in RAW and HEK283T cells were conjugated with SNAP protein"}, {"measurement": "conjugation of SNAP protein to intrinsic cellular surface proteins", "setting": "RAW cell", "value": "significant amount of intrinsic proteins in RAW and HEK283T cells were conjugated with SNAP protein"}]}]}
